Molecular target: the molecule itself
Assay: MST

B1: MRE11 structured-domain (1–411 aa) (domain or fragment, UniProt P49959 1-411, looked up)
chain: MSTADALDDENTFKILVATDIHLGFMEKDAVRGNDTFVTLDEILRLAQENEVDFILLGGDLFHENKPSRKTLHTCLELLRKYCMGDRPVQFEILSDQSVNFGFSKFPWVNYQDGNLNISIPVFSIHGNHDDPTGADALCALDILSCAGFVNHFGRSMSVEKIDISPVLLQKGSTKIALYGLGSIPDERLYRMFVNKKVTMLRPKEDENSWFNLFVIHQNRSKHGSTNFIPEQFLDDFIDLVIWGHEHECKIAPTKNEQQLFYISQPGSSVVTSLSPGEAVKKHVGLLRIKGRKMNMHKIPLHTVRQFFMEDIVLANHPDIFNPDNPKVTQAIQSFCLEKIEEMLENAERERLGNSHQPEKPLVRLRVDYSGGFEPFSVLRFSQKFVDRVANPKDIIHFFRHREQKEKTGEE
modifications: amine-reactive AlexaFluor-647 dye on the labeled copy; the titrated copy is unlabeled
Kd: 370 ± 80 nM
